Measured values taken from US20200115416A1 (REGENTS OF THE UNIVERSITY OF MINNESOTA, published 2020).
Square brackets hold non-standard residues; d marks the D form. hPhe = N[C@@H](CCc1ccccc1)C(=O)O; Nle = CCCC[C@H](N)C(=O)O

Columns and labels:
Assay in all cases: cell-based or functional assay
[1] = molecular target: T1, mouse melanocortin-1 receptor (mouse, UniProt Q01727 1-315)
[2] = molecular target: mouse melanocortin-5 receptor (mouse, UniProt P41149 1-325)
[3] = molecular target: mouse melanocortin-3 receptor (mouse, UniProt P33033 1-323)
[4] = molecular target: mouse melanocortin-4 receptor (mouse, UniProt P56450 1-332)
[5] = molecular target: T1, mouse melanocortin-1 receptor; remark: listed apart in the source

Sequence of mouse melanocortin-3 receptor (P33033 whole entry): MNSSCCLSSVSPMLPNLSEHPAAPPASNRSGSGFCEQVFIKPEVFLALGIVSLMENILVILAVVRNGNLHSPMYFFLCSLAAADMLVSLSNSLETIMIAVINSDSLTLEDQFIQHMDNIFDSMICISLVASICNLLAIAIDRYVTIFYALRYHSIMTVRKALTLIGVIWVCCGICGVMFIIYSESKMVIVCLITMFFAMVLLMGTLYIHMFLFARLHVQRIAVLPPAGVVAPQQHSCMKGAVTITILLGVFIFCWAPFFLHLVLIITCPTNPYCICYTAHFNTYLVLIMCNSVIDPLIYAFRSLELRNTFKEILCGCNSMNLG
T1 sequence (Q01727 whole entry): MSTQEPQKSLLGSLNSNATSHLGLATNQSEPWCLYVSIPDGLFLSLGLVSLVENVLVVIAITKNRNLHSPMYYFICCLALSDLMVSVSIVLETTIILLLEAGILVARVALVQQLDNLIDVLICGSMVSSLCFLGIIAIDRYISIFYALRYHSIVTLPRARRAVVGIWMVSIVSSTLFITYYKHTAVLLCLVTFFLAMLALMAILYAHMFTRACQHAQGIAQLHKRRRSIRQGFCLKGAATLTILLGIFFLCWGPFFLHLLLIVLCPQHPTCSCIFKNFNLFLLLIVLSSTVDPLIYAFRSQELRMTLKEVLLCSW
Sequence of mouse melanocortin-4 receptor (P56450 whole entry): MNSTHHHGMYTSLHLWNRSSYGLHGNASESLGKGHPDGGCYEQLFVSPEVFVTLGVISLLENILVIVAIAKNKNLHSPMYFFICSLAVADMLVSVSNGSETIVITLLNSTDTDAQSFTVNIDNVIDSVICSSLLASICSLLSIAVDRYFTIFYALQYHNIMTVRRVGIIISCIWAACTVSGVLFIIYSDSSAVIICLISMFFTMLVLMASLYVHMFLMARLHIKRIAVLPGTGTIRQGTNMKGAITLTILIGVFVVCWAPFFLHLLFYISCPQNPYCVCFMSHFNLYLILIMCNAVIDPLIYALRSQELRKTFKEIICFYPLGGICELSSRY
Sequence of mouse melanocortin-5 receptor (P41149 whole entry): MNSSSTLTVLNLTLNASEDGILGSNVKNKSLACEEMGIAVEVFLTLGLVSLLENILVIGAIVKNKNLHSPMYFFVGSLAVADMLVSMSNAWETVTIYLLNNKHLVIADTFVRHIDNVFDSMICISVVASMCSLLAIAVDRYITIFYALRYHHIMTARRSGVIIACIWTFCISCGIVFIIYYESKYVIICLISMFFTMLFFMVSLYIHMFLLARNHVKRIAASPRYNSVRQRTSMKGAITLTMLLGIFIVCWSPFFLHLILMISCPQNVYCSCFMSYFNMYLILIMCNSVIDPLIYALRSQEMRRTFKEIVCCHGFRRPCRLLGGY

B1: c[Pro-Arg-Phe-Phe-Asn-His-Phe-DPro] (peptide)
peptide: cyclo(PRFFNHF[dP])
SMILES: N=C(N)NCCC[C@@H]1NC(=O)[C@@H]2CCCN2C(=O)[C@H]2CCCN2C(=O)[C@H](Cc2ccccc2)NC(=O)[C@H](Cc2c[nH]cn2)NC(=O)[C@H](CC(N)=O)NC(=O)[C@H](Cc2ccccc2)NC(=O)[C@H](Cc2ccccc2)NC1=O
agonist EC50 (cAMP AlphaScreen) [1]: 2.6 µM
agonist EC50 (cAMP AlphaScreen) [2]: > 100 µM
agonist EC50 (cAMP AlphaScreen) [3]: > 100 µM
antagonist pA2 (Schild, agonist NDP-MSH) [3]: < 5.5
agonist EC50 (cAMP AlphaScreen) [4]: > 100 µM
antagonist pA2 (Schild, agonist NDP-MSH) [4]: 6.07

B2: c[Pro-Arg-Phe-Phe-Asn-Ala-Ala-DPro] (peptide)
peptide: cyclo(PRFFNAA[dP])
SMILES: C[C@@H]1NC(=O)[C@H](CC(N)=O)NC(=O)[C@H](Cc2ccccc2)NC(=O)[C@H](Cc2ccccc2)NC(=O)[C@H](CCCNC(=N)N)NC(=O)[C@@H]2CCCN2C(=O)[C@H]2CCCN2C(=O)[C@H](C)NC1=O
agonist EC50 (cAMP AlphaScreen) [1]: > 100 µM
inverse agonist, % change from basal cAMP at 100 µM [2]: -25%
agonist EC50 (cAMP AlphaScreen) [3]: > 100 µM
antagonist pA2 (Schild, agonist NDP-MSH) [3]: 6.1
agonist EC50 (cAMP AlphaScreen) [4]: > 100 µM
antagonist pA2 (Schild, agonist NDP-MSH) [4]: 8.16

B3: c[Pro-Arg-Phe-Phe-His-Ala-Phe-DPro] (peptide)
peptide: cyclo(PRFFHAF[dP])
SMILES: C[C@@H]1NC(=O)[C@H](Cc2c[nH]cn2)NC(=O)[C@H](Cc2ccccc2)NC(=O)[C@H](Cc2ccccc2)NC(=O)[C@H](CCCNC(=N)N)NC(=O)[C@@H]2CCCN2C(=O)[C@H]2CCCN2C(=O)[C@H](Cc2ccccc2)NC1=O
agonist EC50 (cAMP AlphaScreen) [1]: > 100 µM
inverse agonist apparent potency [2]: 0.01 µM
inverse agonist, % decrease from basal cAMP [2]: -15%
agonist EC50 (cAMP AlphaScreen) [3]: > 100 µM
antagonist pA2 (Schild, agonist NDP-MSH) [3]: 6.46

B4: c[Pro-Arg-Phe-Phe-Phe-Ala-Phe-DPro] (peptide)
peptide: cyclo(PRFFFAF[dP])
SMILES: C[C@@H]1NC(=O)[C@H](Cc2ccccc2)NC(=O)[C@H](Cc2ccccc2)NC(=O)[C@H](Cc2ccccc2)NC(=O)[C@H](CCCNC(=N)N)NC(=O)[C@@H]2CCCN2C(=O)[C@H]2CCCN2C(=O)[C@H](Cc2ccccc2)NC1=O
agonist EC50 (cAMP AlphaScreen) [1]: > 100 µM
agonist EC50 (cAMP AlphaScreen) [2]: > 100 µM
agonist EC50 (cAMP AlphaScreen) [3]: > 100 µM
antagonist pA2 (Schild, agonist NDP-MSH) [3]: < 5.5
agonist EC50 (cAMP AlphaScreen) [4]: > 100 µM
antagonist pA2 (Schild, agonist NDP-MSH) [4]: 6.63

B5: c[Pro-Arg-Phe-Phe-Val-Ala-Phe-DPro] (peptide)
peptide: cyclo(PRFFVAF[dP])
% maximal NDP-MSH response at 100 µM (cAMP AlphaScreen) [1]: 55%
inverse agonist apparent potency [2]: 0.51 µM
inverse agonist, % decrease from basal cAMP [2]: -25%
agonist EC50 (cAMP AlphaScreen) [3]: > 100 µM
antagonist pA2 (Schild, agonist NDP-MSH) [3]: < 5.5
agonist EC50 (cAMP AlphaScreen) [4]: > 100 µM
antagonist pA2 (Schild, agonist NDP-MSH) [4]: 5.9

B6: c[Pro-Arg-Phe-hPhe-Asn-Ala-Phe-DPro] (peptide)
peptide: cyclo(PRF[hPhe]NAF[dP])
% receptor stimulation at 100 µM (cAMP AlphaScreen) [5]: 35%

B7: c[Pro-Arg-Phe-Phe-Asn-Gly-Phe-DPro] (peptide)
peptide: cyclo(PRFFNGF[dP])
SMILES: N=C(N)NCCC[C@@H]1NC(=O)[C@@H]2CCCN2C(=O)[C@H]2CCCN2C(=O)[C@H](Cc2ccccc2)NC(=O)CNC(=O)[C@H](CC(N)=O)NC(=O)[C@H](Cc2ccccc2)NC(=O)[C@H](Cc2ccccc2)NC1=O
agonist EC50 (cAMP AlphaScreen) [1]: > 100 µM
inverse agonist, % change from basal cAMP at 100 µM [2]: -35%
agonist EC50 (cAMP AlphaScreen) [3]: > 100 µM
antagonist pA2 (Schild, agonist NDP-MSH) [3]: < 5.5
agonist EC50 (cAMP AlphaScreen) [4]: > 100 µM
antagonist pA2 (Schild, agonist NDP-MSH) [4]: 6.1

B8: c[Pro-Arg-Phe-Phe-Asn-Leu-Phe-DPro] (peptide)
peptide: cyclo(PRFFNLF[dP])
SMILES: CC(C)C[C@@H]1NC(=O)[C@H](CC(N)=O)NC(=O)[C@H](Cc2ccccc2)NC(=O)[C@H](Cc2ccccc2)NC(=O)[C@H](CCCNC(=N)N)NC(=O)[C@@H]2CCCN2C(=O)[C@H]2CCCN2C(=O)[C@H](Cc2ccccc2)NC1=O
% maximal NDP-MSH response at 100 µM (cAMP AlphaScreen) [1]: 80%
agonist EC50 (cAMP AlphaScreen) [2]: > 100 µM
% maximal NDP-MSH response at 100 µM (cAMP AlphaScreen) [3]: 25%
antagonist pA2 (Schild, agonist NDP-MSH) [3]: < 5.5
% maximal NDP-MSH response at 100 µM (cAMP AlphaScreen) [4]: 25%
antagonist pA2 (Schild, agonist NDP-MSH) [4]: 6.18

B9: c[Pro-Arg-Phe-Phe-Nle-Ala-Phe-DPro] (peptide)
peptide: cyclo(PRFF[Nle]AF[dP])
agonist EC50 (cAMP AlphaScreen) [1]: > 100 µM
agonist EC50 (cAMP AlphaScreen) [2]: > 100 µM
agonist EC50 (cAMP AlphaScreen) [3]: > 100 µM
antagonist pA2 (Schild, agonist NDP-MSH) [3]: < 5.5
agonist EC50 (cAMP AlphaScreen) [4]: > 100 µM
antagonist pA2 (Schild, agonist NDP-MSH) [4]: 6.9

B10: c[Pro-Arg-Phe-Phe-Asn-Glu-Phe-DPro] (peptide)
peptide: cyclo(PRFFNEF[dP])
SMILES: N=C(N)NCCC[C@@H]1NC(=O)[C@@H]2CCCN2C(=O)[C@H]2CCCN2C(=O)[C@H](Cc2ccccc2)NC(=O)[C@H](CCC(=O)O)NC(=O)[C@H](CC(N)=O)NC(=O)[C@H](Cc2ccccc2)NC(=O)[C@H](Cc2ccccc2)NC1=O
% maximal NDP-MSH response at 100 µM (cAMP AlphaScreen) [1]: 60%
agonist EC50 (cAMP AlphaScreen) [2]: > 100 µM
agonist EC50 (cAMP AlphaScreen) [3]: > 100 µM
antagonist pA2 (Schild, agonist NDP-MSH) [3]: < 5.5
agonist EC50 (cAMP AlphaScreen) [4]: > 100 µM
antagonist pA2 (Schild, agonist NDP-MSH) [4]: < 5.5

B11: c[Pro-Arg-Phe-Phe-Asn-Asp-Phe-DPro] (peptide)
peptide: cyclo(PRFFNDF[dP])
SMILES: N=C(N)NCCC[C@@H]1NC(=O)[C@@H]2CCCN2C(=O)[C@H]2CCCN2C(=O)[C@H](Cc2ccccc2)NC(=O)[C@H](CC(=O)O)NC(=O)[C@H](CC(N)=O)NC(=O)[C@H](Cc2ccccc2)NC(=O)[C@H](Cc2ccccc2)NC1=O
% maximal NDP-MSH response at 100 µM (cAMP AlphaScreen) [1]: 65%
inverse agonist, % change from basal cAMP at 100 µM [2]: -25%
agonist EC50 (cAMP AlphaScreen) [3]: > 100 µM
antagonist pA2 (Schild, agonist NDP-MSH) [3]: < 5.5
agonist EC50 (cAMP AlphaScreen) [4]: > 100 µM
antagonist pA2 (Schild, agonist NDP-MSH) [4]: < 5.5

B12: c[Pro-Arg-Phe-Phe-Trp-Ala-Phe-DPro] (peptide)
peptide: cyclo(PRFFWAF[dP])
SMILES: C[C@@H]1NC(=O)[C@H](Cc2c[nH]c3ccccc23)NC(=O)[C@H](Cc2ccccc2)NC(=O)[C@H](Cc2ccccc2)NC(=O)[C@H](CCCNC(=N)N)NC(=O)[C@@H]2CCCN2C(=O)[C@H]2CCCN2C(=O)[C@H](Cc2ccccc2)NC1=O
% maximal NDP-MSH response at 100 µM (cAMP AlphaScreen) [1]: 80%
inverse agonist apparent potency [2]: 0.15 µM
inverse agonist, % decrease from basal cAMP [2]: -20%
% maximal NDP-MSH response at 100 µM (cAMP AlphaScreen) [3]: 40%
antagonist pA2 (Schild, agonist NDP-MSH) [3]: 5.7
% maximal NDP-MSH response at 100 µM (cAMP AlphaScreen) [4]: 50%
antagonist pA2 (Schild, agonist NDP-MSH) [4]: 6.81

B13: c[Pro-Arg-Phe-Phe-Asn-Lys-Phe-DPro] (peptide)
peptide: cyclo(PRFFNKF[dP])
SMILES: N=C(N)NCCC[C@@H]1NC(=O)[C@@H]2CCCN2C(=O)[C@H]2CCCN2C(=O)[C@H](Cc2ccccc2)NC(=O)[C@H](CCCCN)NC(=O)[C@H](CC(N)=O)NC(=O)[C@H](Cc2ccccc2)NC(=O)[C@H](Cc2ccccc2)NC1=O
% maximal NDP-MSH response at 100 µM (cAMP AlphaScreen) [1]: 60%
% maximal NDP-MSH response at 100 µM (cAMP AlphaScreen) [2]: 45%
% maximal NDP-MSH response at 100 µM (cAMP AlphaScreen) [3]: 45%
antagonist pA2 (Schild, agonist NDP-MSH) [3]: < 5.5
agonist EC50 (cAMP AlphaScreen) [4]: > 100 µM
antagonist pA2 (Schild, agonist NDP-MSH) [4]: 6.11

B14: c[Pro-Arg-Phe-Phe-Thr-Ala-Phe-DPro] (peptide)
peptide: cyclo(PRFFTAF[dP])
SMILES: C[C@@H]1NC(=O)[C@H]([C@@H](C)O)NC(=O)[C@H](Cc2ccccc2)NC(=O)[C@H](Cc2ccccc2)NC(=O)[C@H](CCCNC(=N)N)NC(=O)[C@@H]2CCCN2C(=O)[C@H]2CCCN2C(=O)[C@H](Cc2ccccc2)NC1=O
agonist EC50 (cAMP AlphaScreen) [1]: > 100 µM
inverse agonist apparent potency [2]: 0.05 µM
inverse agonist, % decrease from basal cAMP [2]: -20%
agonist EC50 (cAMP AlphaScreen) [3]: > 100 µM
antagonist pA2 (Schild, agonist NDP-MSH) [3]: 6.4
agonist EC50 (cAMP AlphaScreen) [4]: > 100 µM
antagonist pA2 (Schild, agonist NDP-MSH) [4]: 7.76

B15: c[Pro-Arg-Phe-Phe-Asn-Phe-Phe-DPro] (peptide)
peptide: cyclo(PRFFNFF[dP])
SMILES: N=C(N)NCCC[C@@H]1NC(=O)[C@@H]2CCCN2C(=O)[C@H]2CCCN2C(=O)[C@H](Cc2ccccc2)NC(=O)[C@H](Cc2ccccc2)NC(=O)[C@H](CC(N)=O)NC(=O)[C@H](Cc2ccccc2)NC(=O)[C@H](Cc2ccccc2)NC1=O
% maximal NDP-MSH response at 100 µM (cAMP AlphaScreen) [1]: 70%
% maximal NDP-MSH response at 100 µM (cAMP AlphaScreen) [2]: 25%
% maximal NDP-MSH response at 100 µM (cAMP AlphaScreen) [3]: 35%
antagonist pA2 (Schild, agonist NDP-MSH) [3]: 5.72
% maximal NDP-MSH response at 100 µM (cAMP AlphaScreen) [4]: 35%
antagonist pA2 (Schild, agonist NDP-MSH) [4]: 5.71
